Data on 167 variants can be found in the Human Domainome abundance scans (Beltran et al. 2025).

± gives the uncertainty stated by the source.

To fix the notation:
B1: Protein S100-G, residues 1 to 79; numbered along this chain, P02633 (parent)
chain: MSAKKSPEELKGIFEKYAAKEGDPNQLSKEELKLLLQTEFPSLLKGPSTLDELFEELDKNGDGEVSFEEFQVLVKKISQ

This data set covers variants of B1. The data set can be described thus: abundance fitness (aPCA) (normalised: wild type 0, dead -1); higher = more abundant; growth selection in yeast, the domain comes from the species named. The following applies: Bos taurus.
Take P41C: the abundance fitness is -0.159 ± 0.094.
As for P41R, the abundance fitness was -0.059 ± 0.066.
Regarding P41T, the abundance fitness is 0.001 ± 0.073.
In the case of K76R it was -0.094 ± 0.071; in that of K76I, -0.131 ± 0.074; in that of K76G, 0.011 ± 0.091.
In the case of K76N it was -0.196 ± 0.076; in that of K76V, -0.191 ± 0.071.
As to E64A, the abundance fitness was 0.01 ± 0.07.
Take E64Q: the abundance fitness worked out at 0.081 ± 0.078.
In the case of E64N, the abundance fitness was -0.026 ± 0.12.
Then E64I, with -0.101 ± 0.09.
Take G63F: the abundance fitness was -0.124 ± 0.093.
Consider G63C, for which the abundance fitness is -0.04 ± 0.09.
Take G63R: the abundance fitness was -0.029 ± 0.069.
Then G63V, with -0.079 ± 0.07.
As for G63P, the abundance fitness is -0.036 ± 0.08.
For E30K, the abundance fitness is -0.023 ± 0.084.
Turning to E30L, the abundance fitness is -0.053 ± 0.062.
Regarding E30Y, the abundance fitness was -0.042 ± 0.083.
Consider E30R, for which the abundance fitness is 0.03 ± 0.066.
For the variant E30D, the abundance fitness was 0.073 ± 0.084.
For the variant E30F, the abundance fitness is -0.006 ± 0.077.
Take F54D: the abundance fitness was found to be 0.035 ± 0.088.
Consider F54Y, for which the abundance fitness turned out to be 0.064 ± 0.083.
F54P: the abundance fitness is -0.073 ± 0.073.
On to F54Q, for which the abundance fitness came to 0.004 ± 0.079.
Consider Y17Q, for which the abundance fitness is -0.379 ± 0.081.
On to Y17T, for which the abundance fitness was -0.444 ± 0.077.
Y17R: the abundance fitness is -0.429 ± 0.066.
In the case of Y17K it was -0.519 ± 0.08; in that of Y17S, -0.45 ± 0.063.
As to Y17D, the abundance fitness was -1.1 ± 0.088.
With S28N, the abundance fitness is -0.049 ± 0.084.
S28V: the abundance fitness is -0.156 ± 0.073.
As for S28A, the abundance fitness came out at 0 ± 0.071.
Take E68Y: the abundance fitness was -0.216 ± 0.076.
Regarding E68K, the abundance fitness amounted to 0.018 ± 0.075.
As for S6Y, the abundance fitness was -0.264 ± 0.078.
Then S6W, with -0.372 ± 0.091; and S6N, with -0.161 ± 0.089; and S6V, with -0.203 ± 0.068.
For L43C, the abundance fitness is -0.018 ± 0.092.
Regarding L43D, the abundance fitness was -0.119 ± 0.09.
In the case of L43V it was 0.057 ± 0.068; in that of L43S, 0.023 ± 0.064; in that of L43W, -0.035 ± 0.078.
For G12V, the abundance fitness worked out at 0.031 ± 0.072.
Then G12H, with 0.064 ± 0.089.
In the case of P24H, the abundance fitness was -0.031 ± 0.094.
Then P24V, with -0.009 ± 0.071; and P24M, with -0.066 ± 0.082.
Then P24A, with -0.093 ± 0.069.
Then T49A, with 0.007 ± 0.074.
Regarding T49F, the abundance fitness was found to be 0.032 ± 0.078.
For the variant T49N, the abundance fitness is -0.109 ± 0.072.
Then T49S, with 0.018 ± 0.062; and E52Y, with -0.108 ± 0.08; and E52C, with -0.122 ± 0.085.
Take E52R: the abundance fitness was -0.046 ± 0.063.
Then E52M, with -0.031 ± 0.079.
Turning to S2H, the abundance fitness was -0.09 ± 0.094.
As for S2V, the abundance fitness turned out to be 0.085 ± 0.084.
For the variant S2Q, the abundance fitness came to 0 ± 0.1.
In the case of S2D, the abundance fitness is 0.116 ± 0.081.
Take S2I: the abundance fitness is 0.144 ± 0.088.
Then S2A, with -0.138 ± 0.073.
For the variant Q26N, the abundance fitness was -0.048 ± 0.083.
For Q26C, the abundance fitness is -0.082 ± 0.089.
Q26W: the abundance fitness was determined as 0.037 ± 0.089.
Take T38A: the abundance fitness amounted to 0.027 ± 0.078.
Turning to T38F, the abundance fitness was -0.002 ± 0.08.
In the case of T38M it was -0.045 ± 0.075; in that of T38C, -0.034 ± 0.095; in that of T38Q, 0.008 ± 0.082.
Regarding T38Y, the abundance fitness is -0.074 ± 0.084.
In the case of K5C it was -0.252 ± 0.082; in that of K5T, 0 ± 0.068.
Consider K5F, for which the abundance fitness is -0.015 ± 0.071.
With K5W, the abundance fitness is -0.575 ± 0.088.
In the case of L10Y it was -0.038 ± 0.081; in that of L10A, -0.09 ± 0.083; in that of L10H, -0.155 ± 0.08.
Turning to L10W, the abundance fitness was -0.076 ± 0.085.
Turning to L10I, the abundance fitness was -0.039 ± 0.088.
For L10P, the abundance fitness is -0.383 ± 0.077.
Turning to M1L, the abundance fitness was -0.378 ± 0.085.
M1I: the abundance fitness was 0.027 ± 0.094.
Then M1W, with -0.667 ± 0.11; and M1P, with -1.34 ± 0.26.
In the case of M1K, the abundance fitness was -0.245 ± 0.099.
In the case of M1A it was -0.572 ± 0.1; in that of S66G, 0.033 ± 0.068.
As for S66F, the abundance fitness was -0.124 ± 0.084.
In the case of S66A, the abundance fitness is -0.009 ± 0.065.
Regarding S66Y, the abundance fitness is -0.086 ± 0.079.
Then E39C, with -0.295 ± 0.093; and E39K, with -0.33 ± 0.091; and E39R, with -0.449 ± 0.076.
Take E39F: the abundance fitness was -0.345 ± 0.08.
On to I77M, for which the abundance fitness is -0.143 ± 0.075.
On to I77Q, for which the abundance fitness was -0.092 ± 0.066.
For the variant I77G, the abundance fitness was -0.111 ± 0.089.
Then I77C, with -0.136 ± 0.11; and I77A, with -0.169 ± 0.076; and I77R, with -0.179 ± 0.065.
With I13Q, the abundance fitness was -0.219 ± 0.083.
Regarding I13M, the abundance fitness is 0.053 ± 0.091.
I13F: the abundance fitness was -0.201 ± 0.081.
Then I13R, with -0.409 ± 0.068.
With I13W, the abundance fitness was -0.231 ± 0.089.
For the variant I13C, the abundance fitness was -0.093 ± 0.088.
Turning to S78Y, the abundance fitness is -1.23 ± 0.41.
On to S78L, for which the abundance fitness is -0.188 ± 0.28.
Take S78M: the abundance fitness was -0.049 ± 0.44.
Then A18R, with -0.161 ± 0.066; and A18G, with -0.077 ± 0.08.
Take A18Q: the abundance fitness was -0.248 ± 0.079.
Then E69I, with -0.055 ± 0.094; and E69C, with -0.074 ± 0.084; and E69R, with -0.056 ± 0.07.
Regarding E69W, the abundance fitness is -0.253 ± 0.085.
Then E69S, with -0.07 ± 0.068; and E69L, with -0.006 ± 0.061; and E69H, with -0.007 ± 0.079.
Regarding L50R, the abundance fitness is -0.044 ± 0.058.
On to L50K, for which the abundance fitness is -0.001 ± 0.07.
As for L50A, the abundance fitness is -0.044 ± 0.064.
In the case of L50Y, the abundance fitness stood at 0.024 ± 0.085.
On to L50T, for which the abundance fitness is -0.013 ± 0.065.
As for L50N, the abundance fitness is -0.094 ± 0.081.
Take K4D: the abundance fitness is 0.092 ± 0.08.
Turning to K4T, the abundance fitness was 0.06 ± 0.068.
Then K4N, with 0.067 ± 0.072.
In the case of K4V it was -0.145 ± 0.066; in that of K4M, -0.023 ± 0.087; in that of K4G, -0.223 ± 0.073.
In the case of K4P it was -0.097 ± 0.071.
K4Y: the abundance fitness is 0.01 ± 0.07.
Turning to N60D, the abundance fitness amounted to 0.058 ± 0.093.
Then N60P, with 0.004 ± 0.08; and N60R, with 0.014 ± 0.071; and N60K, with -0.105 ± 0.084.
In the case of N60W it was -0.091 ± 0.092.
On to N60A, for which the abundance fitness is 0.101 ± 0.076.
Then L44A, with 0.071 ± 0.071; and L44M, with -0.059 ± 0.081; and L44P, with 0.08 ± 0.075.
As to K33I, the abundance fitness was -0.051 ± 0.086.
E56A: the abundance fitness is -0.042 ± 0.082.
On to E56I, for which the abundance fitness was -0.208 ± 0.086.
In the case of E55S, the abundance fitness was -0.024 ± 0.064.
In the case of E55V it was -0.012 ± 0.068; in that of E55F, 0.055 ± 0.082.
For E55A, the abundance fitness was -0.045 ± 0.072.
Regarding E55H, the abundance fitness was found to be 0.005 ± 0.084.
Consider E55Q, for which the abundance fitness amounted to 0.031 ± 0.084.
For the variant E55C, the abundance fitness was -0.014 ± 0.092.
Regarding L32D, the abundance fitness was -3.08 ± 0.22.
On to L32C, for which the abundance fitness is -0.097 ± 0.087.
Regarding A19F, the abundance fitness is -0.057 ± 0.077.
As for L27N, the abundance fitness was -0.681 ± 0.099.
Turning to L27A, the abundance fitness was -0.137 ± 0.077.
L27W: the abundance fitness is -0.936 ± 0.088.
In the case of F14A it was -0.98 ± 0.072.
F14K: the abundance fitness is -1.18 ± 0.089.
Take F14E: the abundance fitness was -1.32 ± 0.1.
